First the molecules themselves.
B1: Compound 102 (peptide)
peptide: Ac-FCI[Trp(1-Me)]QDWGEHRCTGAESK([AEEA-AEEA-γGlu-C16 diacid])-NH2
modifications: disulfide 2-12
SMILES: CC[C@H](C)[C@@H]1NC(=O)[C@@H](NC(=O)[C@H](Cc2ccccc2)NC(C)=O)CSSC[C@@H](C(=O)N[C@H](C(=O)NCC(=O)N[C@@H](C)C(=O)N[C@@H](CCC(=O)O)C(=O)N[C@@H](CO)C(=O)N[C@@H](CCCCNC(=O)COCCOCCNC(=O)COCCOCCNC(=O)CC[C@H](NC(=O)CCCCCCCCCCCCCCC(=O)O)C(=O)O)C(N)=O)[C@@H](C)O)NC(=O)[C@H](CCCNC(=N)N)NC(=O)[C@H](Cc2c[nH]cn2)NC(=O)[C@H](CCC(=O)O)NC(=O)CNC(=O)[C@H](Cc2c[nH]c3ccccc23)NC(=O)[C@H](CC(=O)O)NC(=O)[C@H](CCC(N)=O)NC(=O)[C@H](Cc2cn(C)c3ccccc23)NC1=O
B2: Compound 104 (peptide)
peptide: Ac-EGSAYCI[Trp(1-Me)]QDWGEHRC[Sar]EGK([AEEA-AEEA-γGlu-C16 diacid])-NH2
modifications: disulfide 6-16
SMILES: CC[C@H](C)[C@@H]1NC(=O)[C@@H](NC(=O)[C@H](Cc2ccc(O)cc2)NC(=O)[C@H](C)NC(=O)[C@H](CO)NC(=O)CNC(=O)[C@H](CCC(=O)O)NC(C)=O)CSSC[C@@H](C(=O)N(C)CC(=O)N[C@@H](CCC(=O)O)C(=O)NCC(=O)N[C@@H](CCCCNC(=O)COCCOCCNC(=O)COCCOCCNC(=O)CC[C@H](NC(=O)CCCCCCCCCCCCCCC(=O)O)C(=O)O)C(N)=O)NC(=O)[C@H](CCCNC(=N)N)NC(=O)[C@H](Cc2c[nH]cn2)NC(=O)[C@H](CCC(=O)O)NC(=O)CNC(=O)[C@H](Cc2c[nH]c3ccccc23)NC(=O)[C@H](CC(=O)O)NC(=O)[C@H](CCC(N)=O)NC(=O)[C@H](Cc2cn(C)c3ccccc23)NC1=O
B3: Compound 106 (peptide)
peptide: Ac-SAYCI[Trp(1-Me)]QDWGEHRC[Sar]EK([γGlu-Gly-γGlu-C18 diacid])-NH2
modifications: disulfide 4-14
SMILES: CC[C@H](C)[C@@H]1NC(=O)[C@@H](NC(=O)[C@H](Cc2ccc(O)cc2)NC(=O)[C@H](C)NC(=O)[C@H](CO)NC(C)=O)CSSC[C@@H](C(=O)N(C)CC(=O)N[C@@H](CCC(=O)O)C(=O)N[C@@H](CCCCNC(=O)CC[C@H](NC(=O)CNC(=O)CC[C@H](NC(=O)CCCCCCCCCCCCCCCCC(=O)O)C(=O)O)C(=O)O)C(N)=O)NC(=O)[C@H](CCCNC(=N)N)NC(=O)[C@H](Cc2c[nH]cn2)NC(=O)[C@H](CCC(=O)O)NC(=O)CNC(=O)[C@H](Cc2c[nH]c3ccccc23)NC(=O)[C@H](CC(=O)O)NC(=O)[C@H](CCC(N)=O)NC(=O)[C@H](Cc2cn(C)c3ccccc23)NC1=O
B4: Compound 4 (peptide)
peptide: Ac-ICI[Trp(1-Me)]QDWGEHRCT-NH2
modifications: disulfide 2-12
SMILES: CC[C@H](C)[C@H](NC(C)=O)C(=O)N[C@H]1CSSC[C@@H](C(=O)N[C@H](C(N)=O)[C@@H](C)O)NC(=O)[C@H](CCCNC(=N)N)NC(=O)[C@H](Cc2c[nH]cn2)NC(=O)[C@H](CCC(=O)O)NC(=O)CNC(=O)[C@H](Cc2c[nH]c3ccccc23)NC(=O)[C@H](CC(=O)O)NC(=O)[C@H](CCC(N)=O)NC(=O)[C@H](Cc2cn(C)c3ccccc23)NC(=O)[C@H]([C@@H](C)CC)NC1=O
B5: Compound 53 (peptide)
peptide: Ac-EGSAFCI[Trp(1-Me)]QDWGEHRC[Sar]E-NH2
modifications: disulfide 6-16
SMILES: CC[C@H](C)[C@@H]1NC(=O)[C@@H](NC(=O)[C@H](Cc2ccccc2)NC(=O)[C@H](C)NC(=O)[C@H](CO)NC(=O)CNC(=O)[C@H](CCC(=O)O)NC(C)=O)CSSC[C@@H](C(=O)N(C)CC(=O)N[C@@H](CCC(=O)O)C(N)=O)NC(=O)[C@H](CCCNC(=N)N)NC(=O)[C@H](Cc2c[nH]cn2)NC(=O)[C@H](CCC(=O)O)NC(=O)CNC(=O)[C@H](Cc2c[nH]c3ccccc23)NC(=O)[C@H](CC(=O)O)NC(=O)[C@H](CCC(N)=O)NC(=O)[C@H](Cc2cn(C)c3ccccc23)NC1=O
B6: Compound 93 (peptide)
peptide: Ac-ICIWQDWGEHRCTEGK([AEEA-AEEA-γGlu-C16 diacid])-NH2
modifications: disulfide 2-12
SMILES: CC[C@H](C)[C@H](NC(C)=O)C(=O)N[C@H]1CSSC[C@@H](C(=O)N[C@H](C(=O)N[C@@H](CCC(=O)O)C(=O)NCC(=O)N[C@@H](CCCCNC(=O)COCCOCCNC(=O)COCCOCCNC(=O)CC[C@H](NC(=O)CCCCCCCCCCCCCCC(=O)O)C(=O)O)C(N)=O)[C@@H](C)O)NC(=O)[C@H](CCCNC(=N)N)NC(=O)[C@H](Cc2c[nH]cn2)NC(=O)[C@H](CCC(=O)O)NC(=O)CNC(=O)[C@H](Cc2c[nH]c3ccccc23)NC(=O)[C@H](CC(=O)O)NC(=O)[C@H](CCC(N)=O)NC(=O)[C@H](Cc2c[nH]c3ccccc23)NC(=O)[C@H]([C@@H](C)CC)NC1=O
B7: Compound 89 (peptide)
peptide: Ac-SE[Sar]CI[Trp(1-Me)]QEW[Sar]EHRCTEA-NH2
modifications: disulfide 4-14
SMILES: CC[C@H](C)[C@@H]1NC(=O)[C@@H](NC(=O)CN(C)C(=O)[C@H](CCC(=O)O)NC(=O)[C@H](CO)NC(C)=O)CSSC[C@@H](C(=O)N[C@H](C(=O)N[C@@H](CCC(=O)O)C(=O)N[C@@H](C)C(N)=O)[C@@H](C)O)NC(=O)[C@H](CCCNC(=N)N)NC(=O)[C@H](Cc2c[nH]cn2)NC(=O)[C@H](CCC(=O)O)NC(=O)CN(C)C(=O)[C@H](Cc2c[nH]c3ccccc23)NC(=O)[C@H](CCC(=O)O)NC(=O)[C@H](CCC(N)=O)NC(=O)[C@H](Cc2cn(C)c3ccccc23)NC1=O
B8: Compound 92 (peptide)
peptide: Ac-ICIWQDWGEHRCTEGK([γGlu-C16 diacid])-NH2
modifications: disulfide 2-12
SMILES: CC[C@H](C)[C@H](NC(C)=O)C(=O)N[C@H]1CSSC[C@@H](C(=O)N[C@H](C(=O)N[C@@H](CCC(=O)O)C(=O)NCC(=O)N[C@@H](CCCCNC(=O)CC[C@H](NC(=O)CCCCCCCCCCCCCCC(=O)O)C(=O)O)C(N)=O)[C@@H](C)O)NC(=O)[C@H](CCCNC(=N)N)NC(=O)[C@H](Cc2c[nH]cn2)NC(=O)[C@H](CCC(=O)O)NC(=O)CNC(=O)[C@H](Cc2c[nH]c3ccccc23)NC(=O)[C@H](CC(=O)O)NC(=O)[C@H](CCC(N)=O)NC(=O)[C@H](Cc2c[nH]c3ccccc23)NC(=O)[C@H]([C@@H](C)CC)NC1=O
B9: Compound 88 (peptide)
peptide: Ac-GE[Sar]CI[Trp(1-Me)]QDWGEHRCTEA-NH2
modifications: disulfide 4-14
SMILES: CC[C@H](C)[C@@H]1NC(=O)[C@@H](NC(=O)CN(C)C(=O)[C@H](CCC(=O)O)NC(=O)CNC(C)=O)CSSC[C@@H](C(=O)N[C@H](C(=O)N[C@@H](CCC(=O)O)C(=O)N[C@@H](C)C(N)=O)[C@@H](C)O)NC(=O)[C@H](CCCNC(=N)N)NC(=O)[C@H](Cc2c[nH]cn2)NC(=O)[C@H](CCC(=O)O)NC(=O)CNC(=O)[C@H](Cc2c[nH]c3ccccc23)NC(=O)[C@H](CC(=O)O)NC(=O)[C@H](CCC(N)=O)NC(=O)[C@H](Cc2cn(C)c3ccccc23)NC1=O
B10: Compound 90 (peptide)
peptide: Ac-SE[Sar]CI[Trp(1-Me)]QEWGEHRC[Sar]EA-NH2
modifications: disulfide 4-14
SMILES: CC[C@H](C)[C@@H]1NC(=O)[C@@H](NC(=O)CN(C)C(=O)[C@H](CCC(=O)O)NC(=O)[C@H](CO)NC(C)=O)CSSC[C@@H](C(=O)N(C)CC(=O)N[C@@H](CCC(=O)O)C(=O)N[C@@H](C)C(N)=O)NC(=O)[C@H](CCCNC(=N)N)NC(=O)[C@H](Cc2c[nH]cn2)NC(=O)[C@H](CCC(=O)O)NC(=O)CNC(=O)[C@H](Cc2c[nH]c3ccccc23)NC(=O)[C@H](CCC(=O)O)NC(=O)[C@H](CCC(N)=O)NC(=O)[C@H](Cc2cn(C)c3ccccc23)NC1=O
B11: Compound 91 (peptide)
peptide: H-[dY][Sar]CI[Trp(1-Me)]QDWGEHRCTEA-NH2
modifications: disulfide 3-13
SMILES: CC[C@H](C)[C@@H]1NC(=O)[C@@H](NC(=O)CN(C)C(=O)[C@H](N)Cc2ccc(O)cc2)CSSC[C@@H](C(=O)N[C@H](C(=O)N[C@@H](CCC(=O)O)C(=O)N[C@@H](C)C(N)=O)[C@@H](C)O)NC(=O)[C@H](CCCNC(=N)N)NC(=O)[C@H](Cc2c[nH]cn2)NC(=O)[C@H](CCC(=O)O)NC(=O)CNC(=O)[C@H](Cc2c[nH]c3ccccc23)NC(=O)[C@H](CC(=O)O)NC(=O)[C@H](CCC(N)=O)NC(=O)[C@H](Cc2cn(C)c3ccccc23)NC1=O

Starred links: 1 amine or outer side, 2 acyl side, 3 side chain; linkers in the order of their positions; H or OH if unused. Positions of bridges follow the written chain, without caps; N, C: chain ends. Non-standard residues stand in square brackets, D forms with d. Groups on a side chain read outwards from the residue. *: point of attachment. Trp(1-Me) = Cn1cc(C[C@H](N)C(=O)O)c2ccccc21; C18 diacid = O=C(O)CCCCCCCCCCCCCCCCC(=O)*; C16 diacid = O=C(O)CCCCCCCCCCCCCCC(=O)*; γGlu = O=C(O)[C@H](CCC(=O)[*:2])N[*:1]; AEEA = NCCOCCOCC(=O)O; Sar = CNCC(=O)O

For the first test, the target named is T1, Human C3 (Complement tech cat #A113c) (human, UniProt P01024 23-1663).
T1 construct: Purified protein immobilised by amine coupling in the SPR assay; in the haemolysis assay it is the C3 of diluted human serum; Native C3 consists of a beta and an alpha chain cut from one precursor; also called C3 protein
T1 sequence (P01024 23-1663 limits assumed): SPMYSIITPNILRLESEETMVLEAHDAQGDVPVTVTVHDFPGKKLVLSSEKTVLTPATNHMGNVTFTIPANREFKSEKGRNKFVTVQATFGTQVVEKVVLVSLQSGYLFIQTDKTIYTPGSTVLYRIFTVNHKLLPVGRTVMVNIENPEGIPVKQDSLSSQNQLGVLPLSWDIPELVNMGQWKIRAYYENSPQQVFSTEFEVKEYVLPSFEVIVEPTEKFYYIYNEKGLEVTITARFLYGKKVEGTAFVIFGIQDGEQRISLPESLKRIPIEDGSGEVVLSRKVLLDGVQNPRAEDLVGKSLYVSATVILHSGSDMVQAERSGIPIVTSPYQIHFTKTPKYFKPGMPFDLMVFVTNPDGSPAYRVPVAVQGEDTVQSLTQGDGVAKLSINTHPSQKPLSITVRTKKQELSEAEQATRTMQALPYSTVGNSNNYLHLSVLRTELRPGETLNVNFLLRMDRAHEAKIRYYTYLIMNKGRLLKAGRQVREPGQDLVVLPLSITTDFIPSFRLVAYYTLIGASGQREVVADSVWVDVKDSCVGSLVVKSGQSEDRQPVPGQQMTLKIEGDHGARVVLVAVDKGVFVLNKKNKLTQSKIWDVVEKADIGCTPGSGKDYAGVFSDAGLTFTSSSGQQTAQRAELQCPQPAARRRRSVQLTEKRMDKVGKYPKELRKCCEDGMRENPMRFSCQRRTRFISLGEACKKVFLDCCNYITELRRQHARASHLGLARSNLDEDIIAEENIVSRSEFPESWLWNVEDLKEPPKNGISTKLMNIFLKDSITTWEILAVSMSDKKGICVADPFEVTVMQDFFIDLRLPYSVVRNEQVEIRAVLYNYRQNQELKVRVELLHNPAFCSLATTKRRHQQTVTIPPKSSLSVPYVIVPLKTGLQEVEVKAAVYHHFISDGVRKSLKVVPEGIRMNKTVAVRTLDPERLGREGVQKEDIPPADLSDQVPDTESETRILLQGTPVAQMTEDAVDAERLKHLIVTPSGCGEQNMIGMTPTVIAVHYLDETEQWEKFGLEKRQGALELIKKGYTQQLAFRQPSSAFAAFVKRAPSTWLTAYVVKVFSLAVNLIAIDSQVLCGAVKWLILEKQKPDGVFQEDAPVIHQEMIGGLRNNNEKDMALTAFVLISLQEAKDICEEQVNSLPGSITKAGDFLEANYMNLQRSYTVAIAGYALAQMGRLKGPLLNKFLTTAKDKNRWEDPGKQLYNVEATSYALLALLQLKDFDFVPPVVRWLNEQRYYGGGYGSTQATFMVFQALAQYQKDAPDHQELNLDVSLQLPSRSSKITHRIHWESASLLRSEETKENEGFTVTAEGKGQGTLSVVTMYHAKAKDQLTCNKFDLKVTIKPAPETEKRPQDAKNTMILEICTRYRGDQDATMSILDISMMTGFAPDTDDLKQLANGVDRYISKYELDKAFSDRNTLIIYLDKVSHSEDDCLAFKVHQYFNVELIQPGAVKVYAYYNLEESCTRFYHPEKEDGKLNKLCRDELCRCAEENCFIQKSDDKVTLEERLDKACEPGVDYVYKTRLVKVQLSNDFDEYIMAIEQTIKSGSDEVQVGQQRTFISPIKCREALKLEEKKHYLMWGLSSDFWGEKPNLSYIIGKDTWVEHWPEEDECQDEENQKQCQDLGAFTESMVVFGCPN
Briefly: SPR (Biacore T200), human C3 immobilised, peptide injected, 1:1 fit. On the procedure:
Surface plasmon resonance (SPR) was used to characterize peptides with respect to their binding affinity (Kd) for C3. Human C3 (Complement tech cat #A113c) was immobilised on individual flow cells of CM5 sensor chips (GE Healthcare) using standard amine coupling to a density of approximately 3000 resonance units (RU) in a buffer consisting of 10 mM phosphate pH 7.4, 150 mM NaCl, 0.05% Tween20.
For interaction experiments a multi-cycle experiment approach was used and performed using a BiacoreT200™ instrument (GE Healthcare) at 25° C. Peptides were injected in increasing concentration series (6-8 different concentrations) for 60-120 sat a flow rate of 30 µL/min in a buffer consisting of 10 mM Tris buffer at pH 7.4, with 150 mM NaCl and 0.05% Tween20. This was followed by a dissociation period for up to 10 min. The C3 surface was regenerated between runs by a 45 s injection of 3 M MgCl_2.
A general note: Surface plasmon resonance follows binding to a sensor surface in real time, without labels.
Broadly, the Kd is the constant that tells how readily two partners part at equilibrium. A higher Kd goes with lower affinity. B1 showed a Kd of 1.7 nM. Same read-out and setting: the result for B2 reads 34 nM. On the same count and under the same terms, the result for B3 reads 5.4 nM; that for B4, 1.5 nM. On to B5, for which the Kd was 1.4 nM.

The target in the next test is T1, Human C3 (Complement tech cat #A113c). The test can be described thus: cell-based or functional assay.
On to B6, for which the “inhibition of hemolysis IC50” value was less than 500 nM. Consider B1, for which the “inhibition of hemolysis IC50” value is less than 100 nM.

As for B7, the “inhibition of hemolysis IC50” value is less than 100 nM. With B2, the “inhibition of hemolysis IC50” value is less than 100 nM.

On to B8, for which the “inhibition of hemolysis IC50” value is less than 1000 nM.

As for B3, the “inhibition of hemolysis IC50” value was less than 250 nM.

For the molecule B9, the “inhibition of hemolysis IC50” value is less than 100 nM.

With B4, the “inhibition of hemolysis IC50” value was less than 100 nM.

As to B5, the “inhibition of hemolysis IC50” value was less than 100 nM. Regarding B10, the “inhibition of hemolysis IC50” value was less than 250 nM. On to B11, for which the “inhibition of hemolysis IC50” value was less than 100 nM.
